Experimental data taken from patent US20250032605A1.

Experiments:
[1] = molecular target: SARS-2^hg monomer (hyperglycosylated SARS-2 RBD) (SARS-CoV-2 (engineered)) (UniProt P0DTC2)
[2] = molecular target: SARS-2^hg monomer (hyperglycosylated SARS-2 RBD) (SARS-CoV-2 (engineered)) (UniProt P0DTC2); assay: BLI, Fab on FAB2G sensor, hyperglycosylated construct as analyte
[3] = molecular target: rsYNLF-34C (v2 resurfaced YNLF_34C RBD carrying SARS-2 residues 401-507) (bat sarbecovirus YNLF_34C; SARS-CoV-2)

Question: Which results are given for B38 Fab?
Answer: Kd [1]: 2100 nM; fold decrease in affinity for B38 [2]: 2 fold; Kd [3]: 1400 nM
